The values that follow come from patent publication US20220098681A1 (INSERM INSTITUTE NATIONAL DE LA SANT ET DE LA RECHERCHE M …, published 2022).

Assay [1] addresses T1, GST-nsP3ΔHVD (chikungunya virus, UniProt Q8JUX6 1334-1657).
T1 chain: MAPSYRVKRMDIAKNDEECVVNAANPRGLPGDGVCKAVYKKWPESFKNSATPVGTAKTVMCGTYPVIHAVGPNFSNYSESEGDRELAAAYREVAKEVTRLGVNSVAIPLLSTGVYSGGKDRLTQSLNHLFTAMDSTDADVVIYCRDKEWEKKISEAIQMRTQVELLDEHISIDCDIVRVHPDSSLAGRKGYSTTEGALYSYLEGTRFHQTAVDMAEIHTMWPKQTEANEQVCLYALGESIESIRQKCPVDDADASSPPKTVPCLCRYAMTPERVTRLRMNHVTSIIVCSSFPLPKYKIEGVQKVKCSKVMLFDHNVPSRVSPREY
Briefly: GST pull-down with purified proteins, western blot with anti-FHL1.

The target of assay [2] is T2, GST-nsP3 (chikungunya virus, UniProt Q8JUX6 1334-1856).
T2 chain: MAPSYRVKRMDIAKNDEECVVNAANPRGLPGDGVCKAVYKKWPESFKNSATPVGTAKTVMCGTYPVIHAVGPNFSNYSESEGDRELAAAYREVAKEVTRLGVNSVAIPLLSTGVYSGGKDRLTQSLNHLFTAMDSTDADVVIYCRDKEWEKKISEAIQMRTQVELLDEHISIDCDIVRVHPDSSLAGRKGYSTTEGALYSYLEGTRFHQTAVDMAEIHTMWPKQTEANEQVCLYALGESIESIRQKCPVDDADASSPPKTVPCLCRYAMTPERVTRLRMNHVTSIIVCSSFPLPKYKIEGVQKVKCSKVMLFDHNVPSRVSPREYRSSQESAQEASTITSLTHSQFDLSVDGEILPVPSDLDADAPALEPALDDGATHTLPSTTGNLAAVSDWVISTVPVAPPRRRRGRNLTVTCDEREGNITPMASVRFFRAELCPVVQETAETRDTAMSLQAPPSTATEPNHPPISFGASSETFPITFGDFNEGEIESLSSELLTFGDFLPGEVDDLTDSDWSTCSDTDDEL
Described as above.

Assay [3] concerns the target T3, C-terminal HA-tagged FHL2 (UniProt Q14192 1-279).
T3 sequence: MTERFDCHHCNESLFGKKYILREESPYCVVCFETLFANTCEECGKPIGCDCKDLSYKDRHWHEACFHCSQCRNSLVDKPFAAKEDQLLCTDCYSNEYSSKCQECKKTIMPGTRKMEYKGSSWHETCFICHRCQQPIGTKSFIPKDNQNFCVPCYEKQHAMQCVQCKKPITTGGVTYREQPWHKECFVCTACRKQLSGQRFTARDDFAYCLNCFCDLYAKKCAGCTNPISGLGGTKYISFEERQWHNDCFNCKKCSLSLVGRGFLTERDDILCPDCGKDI
Briefly: co-immunoprecipitation from co-transfected 293T cells.

Assay [4] addresses T4, C-terminal HA-tagged FHL1A (human, UniProt Q13642-1 2-280).
T4 sequence: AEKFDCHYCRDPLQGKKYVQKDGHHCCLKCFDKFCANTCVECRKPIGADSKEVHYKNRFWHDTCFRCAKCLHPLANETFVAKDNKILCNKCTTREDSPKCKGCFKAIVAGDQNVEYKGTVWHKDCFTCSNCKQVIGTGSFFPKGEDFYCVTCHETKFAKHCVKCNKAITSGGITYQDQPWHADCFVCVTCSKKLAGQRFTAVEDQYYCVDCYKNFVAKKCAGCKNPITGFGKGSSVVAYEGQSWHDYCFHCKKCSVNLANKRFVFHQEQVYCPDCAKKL
The experiment in a line: co-immunoprecipitation, immunoblot (FIG. 4).

Assay [5] addresses G3BP1 (UniProt Q13283 2-466). The experiment in a line: co-immunoprecipitation in ΔFHL1 cells.

Chain of G3BP1 (Q13283 2-466 limits assumed): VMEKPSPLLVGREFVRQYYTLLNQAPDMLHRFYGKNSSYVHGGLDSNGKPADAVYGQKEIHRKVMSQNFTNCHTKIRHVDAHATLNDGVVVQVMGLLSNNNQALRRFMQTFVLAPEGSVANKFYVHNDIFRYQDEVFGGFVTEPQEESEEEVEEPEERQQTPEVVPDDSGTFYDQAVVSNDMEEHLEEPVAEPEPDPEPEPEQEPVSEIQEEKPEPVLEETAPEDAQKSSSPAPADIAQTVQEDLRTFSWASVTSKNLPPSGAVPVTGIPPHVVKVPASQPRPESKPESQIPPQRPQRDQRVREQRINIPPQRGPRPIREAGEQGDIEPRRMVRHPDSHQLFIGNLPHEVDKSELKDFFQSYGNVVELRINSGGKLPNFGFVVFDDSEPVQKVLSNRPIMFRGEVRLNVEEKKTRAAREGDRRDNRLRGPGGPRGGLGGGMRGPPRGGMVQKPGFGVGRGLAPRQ

B1: 6×His-FHL1A (other)
chain: AEKFDCHYCRDPLQGKKYVQKDGHHCCLKCFDKFCANTCVECRKPIGADSKEVHYKNRFWHDTCFRCAKCLHPLANETFVAKDNKILCNKCTTREDSPKCKGCFKAIVAGDQNVEYKGTVWHKDCFTCSNCKQVIGTGSFFPKGEDFYCVTCHETKFAKHCVKCNKAITSGGITYQDQPWHADCFVCVTCSKKLAGQRFTAVEDQYYCVDCYKNFVAKKCAGCKNPITGFGKGSSVVAYEGQSWHDYCFHCKKCSVNLANKRFVFHQEQVYCPDCAKKL
Regarding B1, the binding result in assay [1] is “no binding”; in assay [2] it was “binds”.

B2: FLAG-tagged CHIKV nsP3 (pCI-neo-3×FLAG plasmid expressing the CHIKV nsP3) (other)
chain: MAPSYRVKRMDIAKNDEECVVNAANPRGLPGDGVCKAVYKKWPESFKNSATPVGTAKTVMCGTYPVIHAVGPNFSNYSESEGDRELAAAYREVAKEVTRLGVNSVAIPLLSTGVYSGGKDRLTQSLNHLFTAMDSTDADVVIYCRDKEWEKKISEAIQMRTQVELLDEHISIDCDIVRVHPDSSLAGRKGYSTTEGALYSYLEGTRFHQTAVDMAEIHTMWPKQTEANEQVCLYALGESIESIRQKCPVDDADASSPPKTVPCLCRYAMTPERVTRLRMNHVTSIIVCSSFPLPKYKIEGVQKVKCSKVMLFDHNVPSRVSPREYRSSQESAQEASTITSLTHSQFDLSVDGEILPVPSDLDADAPALEPALDDGATHTLPSTTGNLAAVSDWVISTVPVAPPRRRRGRNLTVTCDEREGNITPMASVRFFRAELCPVVQETAETRDTAMSLQAPPSTATEPNHPPISFGASSETFPITFGDFNEGEIESLSSELLTFGDFLPGEVDDLTDSDWSTCSDTDDEL
Consider B2, for which the binding result in assay [3], in assay [4] and in assay [5] was “binds” throughout.
